Reference: article PMC3404614 (Biochimica et Biophysica Acta, 2012)

System: Akt
Test: pS473 Akt phosphorylation by pancreatic growth factors
Type: cell-based
Conditions: rat pancreatic acini; data not shown

B1: hepatocyte growth factor (protein, UniProt P17945 33-495; P17945 496-728, looked up)
Hepatocyte growth factor …: QKKRRNTLHEFKKSAKTTLTKEDPLVKIKTKKVNSADECANRCIRNKGFPFTCKAFVFDKSRKRCYWYPFNSMSSGVKKGFGHEFDLYENKDYIRNCIIGKGGSYKGTVSITKSGIKCQPWNSMIPHEHSFLPSSYRGKDLQENYCRNPRGEEGGPWCFTSNPEVRYEVCDIPQCSEVECMTCNGESYRGPMDHTESGKTCQRWDQQTPHRHKFLPERYPDKGFDDNYCRNPDGKPRPWCYTLDPDTPWEYCAIKMCAHSAVNETDVPMETTECIKGQGEGYRGTTNTIWNGIPCQRWDSQYPHKHDITPENFKCKDLRENYCRNPDGAESPWCFTTDPNIRVGYCSQIPKCDVSSGQDCYRGNGKNYMGNLSKTRSGLTCSMWDKNMEDLHRHIFWEPDASKLTKNYCRNPDDDAHGPWCYTGNPLVPWDYCPISRCEGDTTPTIVNLDHPVISCAKTKQLR
Hepatocyte growth factor beta …: VVNGIPTQTTVGWMVSLKYRNKHICGGSLIKESWVLTARQCFPARNKDLKDYEAWLGIHDVHERGEEKRKQILNISQLVYGPEGSDLVLLKLARPAILDNFVSTIDLPSYGCTIPEKTTCSIYGWGYTGLINADGLLRVAHLYIMGNEKCSQHHQGKVTLNESELCAGAEKIGSGPCEGDYGGPLICEQHKMRMVLGVIVPGRGCAIPNRPGIFVRVAYYAKWIHKVILTYKL
Question: With B1 as the molecule, how does the “pS473 Akt phosphorylation” value read?
Answer: stimulated pS473 Akt phosphorylation
